Experimental data as given in US20220306744A1 (CRESCENDO BIOLOGICS, published 2022).

B1: 1.6a (VHH)
VHH: EVQLVESGGGVVQPGRSLRLSCAASGFTFSSYAMHWVRQAPGKGREWVSGISWNSGSMGYAESVKGRFTISRDNAKNSLYLQMNSLRAEDSALYYCVKDKGPGLTGTTADYYGMDVWGQGTTVTVSS
B2: 1.15a (VHH)
VHH: EVQLLESGGGLVQPGRSLRLSCTASGFTFDDYAMHWVRQAPGKGREWVSGISWNSGSMGYAESVKGRFTISRDNAKNSLYLQMNSLRAEDSALYYCVKDKGPGLIGSTADYYGMDVWGQGTTVTVSS
B3: 1.7a (VHH)
VHH: EVQLVESGGGVIQPGRSLRLSCAASGFTFDDYAMHWVRQAPGKGREWVSGISWNGGSMGYAESVKGRFTISRDNAQNSLYLQMNSLRAEDSALYYCVKDKGPGLTGTTADYYGMDVWGQGTTVTVSS
B4: 1.17a (VHH)
VHH: EVQLLESGGGLVQPGGSLRLSCAASGFTFDDYAMHWVRQAPGKGLEWVSGISWNSGSMGYAASVKDRFTISRDNAKNSLYLQMNSLTTEDTALYYCVKDKGPGLIGSTADYHGLDVWGQGTTVTVSS
B5: 1.51a (VHH)
VHH: EVQLVESGGGVVRPGGSLRLSCAASGFTFDDYAMSWVRQAPGKGLEWVSGITWNGGSTGYADSVKDRFTISRDNAKNSLYLQMNSLRAEDTALYYCVRDKYSYAWSYDGFDIWGQGTMVTVSS
B6: 1.65a (VHH)
VHH: EVQLVESGGGVVRPGGSLRLSCAASGFTFDDYAQSWVRQAPGKGLEWVSGITWNGGSTGYADSVKGRFTISRDNAKNSLYLQMNSLRAEDTALYYCVRDKYSYAWSYDGFDIWGQGTMVTVSS
B7: 1.70a (VHH)
VHH: EVQLVESGGGVVRPGGSLRLSCAASGFTFDDYAVSWVRQAPGKGLEWVSGITWNGGSTGYADSVKGRFTISRDNAKNSLYLQMNSLRAEDTALYYCVRDKYSYAWSYDGFDIWGQGTMVTVSS
B8: 1.68a (VHH)
VHH: EVQLVESGGGVVRPGGSLRLSCAASGFTFDDYAESWVRQAPGKGLEWVSGITWNGGSTGYADSVKGRFTISRDNAKNSLYLQMNSLRAEDTALYYCVRDKYSYAWSYDGFDIWGQGTMVTVSS
B9: 1.67a (VHH)
VHH: EVQLVESGGGVVRPGGSLRLSCAASGFTFDDYAGSWVRQAPGKGLEWVSGITWNGGSTGYADSVKGRFTISRDNAKNSLYLQMNSLRAEDTALYYCVRDKYSYAWSYDGFDIWGQGTMVTVSS
B10: 1.64a (VHH)
VHH: EVQLVESGGGVVRPGGSLRLSCAASGFTFDDYAFSWVRQAPGKGLEWVSGITWNGGSTGYADSVKGRFTISRDNAKNSLYLQMNSLRAEDTALYYCVRDKYSYAWSYDGFDIWGQGTMVTVSS
B11: 1.62a (VHH)
VHH: EVQLVESGGGVVRPGGSLRLSCAASGFTFDDYAMSWVRQAPGKGLEWVSGITWNAGSTGYADSVKGRFTISRDNAKNSLYLQMNSLRAEDTALYYCVRDKYSYAWSYDDFDIWGQGTMVTVSS
notes: also called Humabody 1.62a
B12: 1.63a (VHH)
VHH: EVQLVESGGGVVRPGGSLRLSCAASGFTFDDYAMSWVRQAPGKGLEWVSGITWNRGSTGYADSVKGRFTISRDNAKNSLYLQMNSLRAEDTALYYCVRDKYSYAWSYDDFDIWGQGTMVTVSS
B13: 1.66a (VHH)
VHH: EVQLVESGGGVVRPGGSLRLSCAASGFTFDDYANSWVRQAPGKGLEWVSGITWNGGSTGYADSVKGRFTISRDNAKNSLYLQMNSLRAEDTALYYCVRDKYSYAWSYDGFDIWGQGTMVTVSS
B14: 1.71a (VHH)
VHH: EVQLVESGGGVVRPGGSLRLSCAASGFTFDDYALSWVRQAPGKGLEWVSGITWNGGSTGYADSVKGRFTISRDNAKNSLYLQMNSLRAEDTALYYCVRDKYSYAWSYDGFDIWGQGTMVTVSS
B15: 1.61a (VHH)
VHH: QVQLVESGGGVVRPGGSLRLSCAASGFTFDNYAMSWVRQAPGKGLEWVSGITWNGGSTGYADSVKDRFTISRDNAKNSLYLQMNSLRAEDTALYYCARDKYSYAWSYDTFDIRGQGTMVTVSS
B16: 1.60a (VHH)
VHH: QVQLVESGGGVVRPGGSLRLSCAASGFTFDDYAMSWVRQAPGKGLEWVSGISWNGGSTGYADSVKDRFTISRDNAKNSLYLQMNSLRAEDTALYYCARDPYSGAWSYDAFDIWGQGTMVTVSS
B17: 1.69a (VHH)
VHH: EVQLVESGGGVVRPGGSLRLSCAASGFTFDDYAWSWVRQAPGKGLEWVSGITWNGGSTGYADSVKGRFTISRDNAKNSLYLQMNSLRAEDTALYYCVRDKYSYAWSYDGFDIWGQGTMVTVSS
B18: 1.58a (VHH)
VHH: QVQLVESGGGLVQPGGSLRLSCAASGFTFDDYAMSWVRQAPGKGLEWVSGISWNGGSAGYADSVKDRFTISRDNAKNSLYLQMNSLRAEDTALYYCARDPHSSAWSYDAFDIWGQGTMVTVSS
B19: 1.59a (VHH)
VHH: QVQLVESGGGVVRPGGSLRLSCAASGFTFDDYAMSWVRQAPGKGLEWVSGISWNGGSKGYADSVKDRFTISRDNAKNSLYLQMNSLRAEDTALYYCARDPYSGAWSYDAFDIWGQGTMVTVSS
B20: 1.47a (VHH)
VHH: EVQLVESGGGLVQPGRSLRLSCAASGFTFDDYAFHWVRQAPGKDLEWVSGISWNSGSYGYADSVKGRFTISRDNAKNSLYLQMNSLRAEDTALYYCVREKGPGLTGSTADYYGLDAWGQGTMVTVSS
B21: 1.49a (VHH)
VHH: EVQLVESGGGLVQPGRSLRLSCAASGFTFDDYAFHWVRQAPGKDLEWVSGISWNSGSQGYADSVKGRFTISRDNAKNSLYLQMNSLRAEDTALYYCVREKGPGLTGSTADYYGLDAWGQGTMVTVSS
B22: 1.48a (VHH)
VHH: EVQLVESGGGLVQPGRSLRLSCAASGFTFDDYALHWVRQAPGKDLEWVSGISWNSGSQGYADSVKGRFTISRDNAKNSLYLQMNSLRAEDTALYYCVREKGPGLTGSTADYYGLDAWGQGTMVTVSS
B23: 1.50a (VHH)
VHH: EVQLVESGGGLVQPGRSLRLSCAASGFTFDDYAFHWVRQAPGKDLEWVSGISWNAGSQGYADSVKGRFTISRDNAKNSLYLQMNSLRAEDTALYYCVREKGPGLTGSTADYYGLDAWGQGTMVTVSS

molecular target: T1, human PD-1 expressed on cells (CHO TREX human PD1 cell line, full-length human PD-1 sequence) (human, UniProt Q15116 21-288); assay: worded summary of the screens
T1 construct: Also used for human PD-1 on Jurkat reporter cells, on PathHunter cells and on PHA-stimulated human CD4+ T cells; also called CHO human PD1 cells; CHO human PD-1 cells
T1 sequence (Q15116 21-288): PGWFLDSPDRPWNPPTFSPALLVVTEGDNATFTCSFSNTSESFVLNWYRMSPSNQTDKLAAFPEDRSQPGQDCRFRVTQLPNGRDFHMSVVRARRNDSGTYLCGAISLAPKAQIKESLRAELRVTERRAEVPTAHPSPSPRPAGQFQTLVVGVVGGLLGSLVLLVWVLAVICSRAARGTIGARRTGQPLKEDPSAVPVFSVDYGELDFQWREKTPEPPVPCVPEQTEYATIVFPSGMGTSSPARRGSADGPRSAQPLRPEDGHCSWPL

Binding result, binds:
B1
B2
B3
B4
B5
B6
B7
B8
B9
B10
B11
B12
B13
B14
B15
B16
B17
B18
B19
B20
B21
B22
B23
